The values that follow come from patent US20150166663A1.

In experiment [1] the target is mouse αV on transfected HEK-293 cells (mouse) (UniProt P43406). In words: FACS, purified mAb, transiently transfected HEK-293 cells (parental cells 74). Background: In flow cytometry, cells or beads pass a laser one at a time.
Experiment [2] addresses T1, mouse β6 on transfected HEK-293 cells (mouse) (UniProt Q9Z0T9).
T1 sequence (looked up): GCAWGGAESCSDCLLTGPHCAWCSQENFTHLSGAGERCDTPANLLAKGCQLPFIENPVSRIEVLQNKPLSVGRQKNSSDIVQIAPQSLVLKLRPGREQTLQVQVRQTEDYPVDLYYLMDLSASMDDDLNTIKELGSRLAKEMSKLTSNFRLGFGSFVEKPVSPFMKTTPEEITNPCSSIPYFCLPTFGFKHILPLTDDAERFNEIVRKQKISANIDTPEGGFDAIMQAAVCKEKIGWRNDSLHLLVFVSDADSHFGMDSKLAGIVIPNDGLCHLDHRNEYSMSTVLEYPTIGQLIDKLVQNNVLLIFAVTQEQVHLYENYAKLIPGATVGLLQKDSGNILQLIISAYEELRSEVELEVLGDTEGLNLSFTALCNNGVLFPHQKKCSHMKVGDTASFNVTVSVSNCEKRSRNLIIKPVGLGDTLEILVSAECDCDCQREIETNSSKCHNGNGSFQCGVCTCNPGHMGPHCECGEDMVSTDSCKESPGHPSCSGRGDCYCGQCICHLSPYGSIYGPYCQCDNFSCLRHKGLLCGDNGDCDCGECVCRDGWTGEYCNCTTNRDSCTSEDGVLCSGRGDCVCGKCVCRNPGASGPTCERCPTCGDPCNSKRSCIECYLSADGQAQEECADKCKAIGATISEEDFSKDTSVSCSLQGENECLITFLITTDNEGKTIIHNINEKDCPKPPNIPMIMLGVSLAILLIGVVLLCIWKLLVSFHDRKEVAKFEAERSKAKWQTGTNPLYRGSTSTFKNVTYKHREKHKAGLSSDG
The description is as above.

In experiment [3] the target is cynomolgus β6 on transfected HEK-293 cells (cynomolgus). Described as above.
Experiment [4] has as its target human αV on parental A375M cells (αVβ3 and αVβ5) (human) (UniProt P06756). In words: FACS, supernatant, parental A375M cells (αVβ3 and αVβ5, no αVβ6).
Experiment [5] shares this target. In words: cell-based or functional assay.

mouse αV on transfected HEK-293 cells (mouse), sequence (P43406 31-1044): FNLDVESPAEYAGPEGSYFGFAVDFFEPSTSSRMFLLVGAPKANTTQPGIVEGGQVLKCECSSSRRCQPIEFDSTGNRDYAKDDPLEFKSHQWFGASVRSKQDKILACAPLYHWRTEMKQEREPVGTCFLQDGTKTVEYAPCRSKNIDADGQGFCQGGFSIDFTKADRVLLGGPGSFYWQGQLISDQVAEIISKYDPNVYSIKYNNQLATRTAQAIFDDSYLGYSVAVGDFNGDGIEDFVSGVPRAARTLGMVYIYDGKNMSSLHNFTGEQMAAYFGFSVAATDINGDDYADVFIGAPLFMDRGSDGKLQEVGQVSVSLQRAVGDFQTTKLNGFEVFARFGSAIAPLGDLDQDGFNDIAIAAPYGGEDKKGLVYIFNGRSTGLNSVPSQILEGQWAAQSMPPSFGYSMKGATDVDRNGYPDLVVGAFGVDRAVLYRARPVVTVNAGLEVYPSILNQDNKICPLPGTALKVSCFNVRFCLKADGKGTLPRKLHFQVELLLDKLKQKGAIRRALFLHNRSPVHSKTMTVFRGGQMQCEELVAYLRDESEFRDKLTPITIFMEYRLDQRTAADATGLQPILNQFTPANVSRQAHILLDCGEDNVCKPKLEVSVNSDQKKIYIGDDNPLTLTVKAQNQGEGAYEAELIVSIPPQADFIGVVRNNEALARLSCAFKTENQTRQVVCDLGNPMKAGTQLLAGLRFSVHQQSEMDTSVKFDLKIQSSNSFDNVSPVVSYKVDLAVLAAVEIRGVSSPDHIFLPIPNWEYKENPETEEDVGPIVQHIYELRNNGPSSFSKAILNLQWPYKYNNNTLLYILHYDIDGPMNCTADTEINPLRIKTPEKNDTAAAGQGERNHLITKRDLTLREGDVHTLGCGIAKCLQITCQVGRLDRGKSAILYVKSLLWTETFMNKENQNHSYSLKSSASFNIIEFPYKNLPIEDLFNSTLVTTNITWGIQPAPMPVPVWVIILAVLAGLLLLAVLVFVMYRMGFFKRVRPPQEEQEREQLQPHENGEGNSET

B1: sc 264 (antibody, V domains shown)
VH: QVQLQESGPGLVKPSQTLSLTCTVSGGSISSGGYYWSWIRQHPGKGLEWIGYIYYSGRTYNNPSLKSRVTISVDTSKNQFSLKLSSVTAADTAVYYCARVATGRGDYHFYAMDVWGQGTTVTVSS
VL: SYELTQPSSVSVSPGQTARITCSGDVLAKKSARWFHQKPGQAPVLVIYKDSERPSGIPERFSGSSSGTTVTLTISGAQVEDEAAYYCYSAADNNLVFGGGTKLTVL
With B1, the figures for the percent of cells shifted in experiment [1], in experiment [2] and in experiment [3] were 71%, 68% and 75%, respectively. In addition, in experiment [4], the A375M % Shifted Cells was 46%. Further, the A375M GeoMean in experiment [4] worked out at 2.35. The Percent Inhibition, adhesion of A375M cells to osteopontin peptide, 5 µg/ml in experiment [5] stood at 3%.

B2: sc 161 (antibody, V domains shown)
VH: EVQLVQSGAEVKKPGESLKISCKGSGYSFTSYWIGWVRQMPGKGLEWMGIIYPGDSDTRYSPSFQGQVTISADKSISTAYLQWSSLKASDTAMYYCARHGIAAAGFYYYYMDVWGQGTTVTVSS
VL: EIVLTQSPDTLSLSPGERASLSCRASQNVNRNYLVWYQQKPGQAPRLLIYGTSNRATGIPDRFSGSGSGTDFTLTISRLEPEDFAVYYCQQCGSLPFTFGPGTKVDIKR
In the case of B2, in experiment [4], the A375M % Shifted Cells amounted to 11% and the A375M GeoMean worked out at 16.7.

B3: sc 133 (antibody, V domains shown)
VH: QVQLVQSGAEVKKPGASVKVSCKASGYTFTGYYMHWVRQAPGQGLEWMGWINPKSGDTNYAQKFQGRVTLTRDTSTSTAYMELSRLRSDDTAVYYCARRLDVWGQGTTVTVSS
VL: QSVLTQPPSVSAAPGQKVTISCSGSSSNIGNNYVSWYQQLPGTAPKLLIYDNNKRPSGIPDRFSGSKSGTSATLGITGLQTGDEADYYCGTWNSSLSAGYVFGTGTKVTV
For the molecule B3, in experiment [4], the A375M % Shifted Cells stood at 24% and the A375M GeoMean is 1.79. Further, the Percent Inhibition, adhesion of A375M cells to osteopontin peptide, 5 µg/ml in experiment [5] stood at 3%.

B4: sc 320 (antibody, V domains shown)
VH: EVQLVESGGGLVKPGGSLRLSCAASGYTFTNYIMHWVRQAPGKGLEWVSSISISSSYIYYADSVKGRFTISRDNAKNSLYLQMNSLRAEDTAVYYCARDPVPLERRDYYYGMDVWGQGTTVTVSS
VL: QSVLTQPPSMSAAPGQKVTISCSGSSSNIGNNYVSWYQQLPGTAPKLLIYDNNKRPSGIPDRFSGSKSGTSATLGITGLQTGDEADYYCGTWDSSLSAGVFGGGTKLTVL
With B4, in experiment [4], the A375M % Shifted Cells was determined as 15% and the A375M GeoMean was determined as 23.2.

B5: sc 97 (antibody, V domains shown)
VH: EVQLVQSGAEVKKPGESLKISCKGSGYSFTSYWIGWVRQMPGKGLEWMGIIYPGDSDTRYSPSFQGQVILSADKSISTAYLQWSSLKASDTAMYYCARHDESSGYYYVFDIWGQGTMVTVSS
VL: SYELTQPPSVSVSPGQTARITCSGDALPKKYAYWYQQKSGQAPVLVIYEDIKRPSGIPERFSGSSSGTMATLTISGAQVEDEADYYCYSTDSSGNHWVFFGGGTKLTVL
With B5, in experiment [4], the A375M % Shifted Cells was found to be 24% and the A375M GeoMean came to 1.84.

B6: sc 277 (antibody, V domains shown)
VH: EVQLVQSGAEVKKPGESLKISCKGSGYSFPSYWIGWVRQMPGKGLEWMGIIYPGDSDTRYSPSFQGQVTISADKSISTAYLQWSSLKASDTAMYYCARHPMEDGMDVWGQGTTVTVSS
VL: SYELTQPPSVSVSPGQTARITCSGDALPKKYAFWYQQKSGQAPVLVIYDDNKRPSGIPERFSGSSSGTMATLTITGAQVEDEADYYCYSTDSSGHHVFGGGTKLTVL
For B6, in experiment [4], the A375M % Shifted Cells came out at 23% and the A375M GeoMean worked out at 1.86.
